Results as given in patent US20180086837A1 (Ablynx, published 2018).
Where “and” joins values, the source holds several entries; their conditions need not be identical. Identical values can stand only once.

Key:
human CXCR4 [1] = target: T1, human CXCR4 (human, UniProt P61073 1-352); assay: [125I]-SDF-1 displacement, HEK293-CXCR4 membrane extracts, n = 3
T1 construct: also called hCXCR4

human CXCR4 [2] = target: T1, human CXCR4; assay: cell-based or functional assay
human CXCR4 [3] = target: T1, human CXCR4; assay: cell-based or functional assay; remark: listed apart in the source
human CXCR4 [4] = target: T1, human CXCR4; assay: flow cytometry, THP-1 cells (double-positive)
human CXCR4 [5] = target: T1, human CXCR4; assay: cell-based or functional assay; remark: listed apart in the source
human CXCR4 [6] = target: T1, human CXCR4; assay: cell-based or functional assay; remark: listed apart in the source
human CXCR4 [7] = target: T1, human CXCR4; assay: [125I]-SDF-1 displacement, HEK293-CXCR4 membrane extracts
human CXCR4 [8] = target: T1, human CXCR4; assay: cell-based or functional assay; remark: listed apart in the source
human CXCR4 [9] = target: T1, human CXCR4; assay: inhibition of 12G5 (competitor, 10 nM PE-labelled) binding, Jurkat cells
human CXCR4 [10] = target: T1, human CXCR4; assay: cell-based or functional assay; remark: listed apart in the source
human CXCR4 [11] = target: T1, human CXCR4; assay: inhibition of 12G5 (competitor, 10 nM PE-labelled) binding, SUPT-1 cells
human CXCR4 [12] = target: T1, human CXCR4; assay: inhibition of 12G5 (competitor, 10 nM PE-labelled) binding, THP-1 cells
human CXCR4 [13] = target: T1, human CXCR4; assay: cell-based or functional assay; remark: listed apart in the source
human CXCR4 [14] = target: T1, human CXCR4; assay: flow cytometry, Jurkat E6-1 cells (CXCR4+/CD4low)
human CXCR4 [15] = target: T1, human CXCR4; assay: flow cytometry, MOLM-13 cells (CXCR4+/CD4+)
human CXCR4 [16] = target: T1, human CXCR4; assay: cell-based or functional assay; remark: listed apart in the source
human CXCR4 [17] = target: T1, human CXCR4; assay: cell-based or functional assay; remark: listed apart in the source
human CXCR4 [18] = target: T1, human CXCR4; assay: cell-based or functional assay; remark: listed apart in the source
human CXCR4 [19] = target: T1, human CXCR4; assay: competition with 12G5 (competitor, 1 nM), Jurkat cells, flow cytometry
human CXCR4 [20] = target: T1, human CXCR4; assay: SDF-1^AF647 displacement, SUPT-1 cells, flow cytometry, n = 3
[21] = target: T2, human CD4 expressed on cells (human, UniProt P01730 26-458); assay: cell-based or functional assay
[22] = target: T2, human CD4 expressed on cells; assay: flow cytometry, Jurkat E6-1 cells (CXCR4+/CD4low); Jurkat E6-1 cells (CXCR4+/CD4low), average of 3 experiments
[23] = target: T2, human CD4 expressed on cells; assay: cell-based or functional assay; remark: listed apart in the source
[24] = target: T2, human CD4 expressed on cells; assay: cell-based or functional assay; remark: listed apart in the source
[25] = target: T2, human CD4 expressed on cells; assay: flow cytometry, primary human T cells, anti-flag detection
[26] = target: T2, human CD4 expressed on cells; assay: cell-based or functional assay; remark: listed apart in the source
[27] = target: T2, human CD4 expressed on cells; assay: flow cytometry, MOLM-13 cells (CXCR4+/CD4+)
[28] = target: T2, human CD4 expressed on cells; assay: cell-based or functional assay; remark: listed apart in the source
[29] = target: T2, human CD4 expressed on cells; assay: cell-based or functional assay; remark: listed apart in the source
[30] = target: T2, human CD4 expressed on cells; assay: cell-based or functional assay; remark: listed apart in the source
[31] = target: T2, human CD4 expressed on cells; assay: flow cytometry, THP-1 cells
human CXCR4 [32] = target: T1, human CXCR4; assay: ELISA on coated hCXCR4 lipoparticles versus null lipoparticles, anti-c-myc + anti-mouse-HRP
[33] = target: T2, human CD4 expressed on cells; assay: flow cytometry, Jurkat cells
[34] = target: T2, human CD4 expressed on cells; assay: flow cytometry, MOLM-13 cells, anti-flag detection
[35] = target: T2, human CD4 expressed on cells; assay: cell-based or functional assay; remark: listed apart in the source
cynomolgus CD4 = target: T3, cynomolgus CD4 (cynomolgus, UniProt P79185 26-458); assay: flow cytometry on the cynomolgus CD4+ T cell line HSC-F, anti-Flag + goat anti-mouse-PE
T3 construct: whole, on cells; also called cyno CD4
T3 sequence (P79185 26-458): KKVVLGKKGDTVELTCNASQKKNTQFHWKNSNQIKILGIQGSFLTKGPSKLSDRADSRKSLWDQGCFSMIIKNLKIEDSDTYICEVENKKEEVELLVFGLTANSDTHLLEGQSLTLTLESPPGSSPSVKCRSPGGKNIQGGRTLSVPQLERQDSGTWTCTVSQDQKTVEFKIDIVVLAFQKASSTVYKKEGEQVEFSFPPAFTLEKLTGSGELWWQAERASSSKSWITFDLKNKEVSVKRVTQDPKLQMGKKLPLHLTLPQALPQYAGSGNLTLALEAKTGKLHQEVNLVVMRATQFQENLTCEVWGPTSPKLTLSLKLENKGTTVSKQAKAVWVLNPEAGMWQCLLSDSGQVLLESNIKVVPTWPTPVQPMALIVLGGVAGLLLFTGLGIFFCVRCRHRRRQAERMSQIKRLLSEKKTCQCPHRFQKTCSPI

[36] = target: T2, human CD4 expressed on cells; assay: flow cytometry, THP-1 cells, anti-flag detection

T1 sequence (P61073 whole entry): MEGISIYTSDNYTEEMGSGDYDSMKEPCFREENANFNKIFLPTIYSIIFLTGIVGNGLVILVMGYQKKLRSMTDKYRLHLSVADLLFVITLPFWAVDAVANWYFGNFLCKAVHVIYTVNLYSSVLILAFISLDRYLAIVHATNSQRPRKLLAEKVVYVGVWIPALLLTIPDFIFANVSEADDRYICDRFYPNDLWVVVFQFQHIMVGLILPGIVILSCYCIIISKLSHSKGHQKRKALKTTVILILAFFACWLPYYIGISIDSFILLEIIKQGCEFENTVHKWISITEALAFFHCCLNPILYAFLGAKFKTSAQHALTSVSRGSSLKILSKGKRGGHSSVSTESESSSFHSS

B1: Nanobody 281F12 (VHH)
VHH: EVQLVESGGGLVQAGDSLRLSCAASGRAFSRYAMGWFRQAPGKEREFVAAIGWGPSKTNYADSVKGRFTISRDNAKNTVYLQMNTLKPEDTAVYSCAAKFVNTDSTWSRSEMYTYWGQGTQVTVSS
notes: also called CXCR4 281F12; anti-CXCR4 Nanobody 281F12; not shown: C-terminal c-myc-His6 tag (E. coli) or FLAG3-His6 tag (Pichia)
Human CXCR4 [1]
  pKi: 7.57
Human CXCR4 [2]
  IC50, MT-4, HE (R5/X4): 10 nM
  IC50, MT-4, HIV-2 ROD (R5/X4): 86.7 nM
  IC50, MT-4, NL4.3 (X4): 22.7 nM
  IC50, PBMC, BaL (R5): > 1700 nM
  IC50, PBMC, DJ259 (R5): > 1700 nM
  IC50, PBMC, HE (R5/X4): 350 nM
  IC50, PBMC, NL4.3 (X4): 47 nM
Human CXCR4 [3]
  IC50, SDF-1 induced Ca2+ signaling, U87-CD4-CXCR4 cells: 66.7 nM
Human CXCR4 [4]
  EC50: 3.1 nM
Human CXCR4 [5]
  IC50, HIV-1 CM237 (clade B) infectivity in PBMC: 16 nM
  IC50, HIV-1 NL4.3 (X4) infectivity in PBMC: 14 nM
  IC50, HIV-1 UG270 (clade D) infectivity in PBMC: 12 nM
  IC90, HIV-1 CM237 (clade B) infectivity in PBMC: 49 nM
  IC90, HIV-1 NL4.3 (X4) infectivity in PBMC: 57 nM
  IC90, HIV-1 UG270 (clade D) infectivity in PBMC: 2.4 nM
Human CXCR4 [6]
  IC50, MT-4, NL4.3 2G12 res.: 17.3 nM
  IC50, MT-4, NL4.3 3F11 res.: 87.3 nM
  IC50, MT-4, NL4.3 281F12 res.: 2330 nM
  IC50, MT-4, NL4.3 AMD-3100 res.: > 1700 nM
  IC50, MT-4, NL4.3 CXCL-12 res.: 220 nM
  IC50, MT-4, NL4.3 wt: 22.7 nM
  IC50, PBMC, NL4.3 3F11 res.: 120 nM
  IC50, PBMC, NL4.3 281F12 res.: 310 nM
  IC50, PBMC, NL4.3 WT: 28 nM
Human CXCR4 [7]
  Ki: 27 nM and 26 nM
Human CXCR4 [8]
  IC50, inhibition of SDF-1a-mediated chemotaxis, Jurkat E6-1 cells: 84.2 nM
  IC50, inhibition of SDF-1a-mediated chemotaxis, MOLM-13 cells: 86 nM
Human CXCR4 [9]
  IC50: 13.7 nM
Human CXCR4 [10]
  IC50, MT-4 + NL4.3 (X4): 22.9 nM
  IC50, PBMC + BaL (R5): > 1670 nM
  IC50, PBMC + NL4.3 (X4): 27.7 nM
  IC50, U87 + NL4.3 (X4): > 6670 nM
Human CXCR4 [11]
  IC50: 51.3 nM
Human CXCR4 [12]
  IC50: 49.3 nM
Human CXCR4 [13]
  IC50, TZM-bl, DJ259 (R5): > 6700 nM
  IC50, TZM-bl, NL4.3 3F11 res: 45.6 nM
  IC50, TZM-bl, NL4.3 281F12 res: 366 nM
  IC50, TZM-bl, NL4.3 WT (X4): 23.5 nM
  IC50, TZM-bl, SM145 (R5): > 6700 nM
Human CXCR4 [14]
  EC50: 7 nM
Human CXCR4 [15]
  EC50: 5.2 nM
Human CXCR4 [16]
  IC50, syncytia formation, SupT1 + HUT-78/IIIb: 1800 nM
  IC50, syncytia formation, SupT1 + HUT-78/NL4.3: 3600 nM
Human CXCR4 [17]
  IC50, dual-tropic R5/X4 HIV-1 HE in PBMCs: 267 nM
  average IC50, HIV-1 NL4.3 replication in MT-4 cells: 0.34 µg/mL
Human CXCR4 [18]
  IC50, HIV1 infectivity, X4 NL4.3 in MT-4 cells: 59.4 nM
Human CXCR4 [19]
  IC50: 13 nM
Human CXCR4 [20]
  IC50: 6.3 nM

B2: Nanobody 03F11 (VHH)
VHH: EVQLVESGGGSVQPGGSLTLSCGTSGRTFNVMGWFRQAPGKEREFVAAVRWSSTGIYYTQYADSVKSRFTISRDNAKNTVYLEMNSLKPEDTAVYYCAADTYNSNPARWDGYDFRGQGTQVTVSS
notes: Monovalent anti-human CD4 Nanobody; also called CD4 3F11; anti-CD4 Nanobody 3F11; not shown: C-terminal myc-His6 tag (E. coli) or FLAG3-His6 tag (Pichia)
[21]
  IC50, MT-4, HE (R5/X4): 10 nM
  IC50, MT-4, HIV-2 ROD (R5/X4): 22.7 nM
  IC50, MT-4, NL4.3 (X4): 34.7 nM
  IC50, PBMC, BaL (R5): 610 nM
  IC50, PBMC, DJ259 (R5): 31 nM
  IC50, PBMC, HE (R5/X4): > 1700 nM
  IC50, PBMC, NL4.3 (X4): 500 nM
  IC50, PBMC, SM145 (R5): 27 nM
[22]
  EC50: 1.4 nM
[23]
  IC50, MT-4, NL4.3 2G12 res.: 23.3 nM
  IC50, MT-4, NL4.3 3F11 res.: > 6700 nM
  IC50, MT-4, NL4.3 281F12 res.: > 6700 nM
  IC50, MT-4, NL4.3 AMD-3100 res.: 22.7 nM
  IC50, MT-4, NL4.3 CXCL-12 res.: 153 nM
  IC50, MT-4, NL4.3 wt: 34.7 nM
  IC50, PBMC, NL4.3 3F11 res.: > 6700 nM
  IC50, PBMC, NL4.3 281F12 res.: > 6700 nM
  IC50, PBMC, NL4.3 WT: 500 nM
[24]
  IC50, MT-4 + NL4.3 (X4): 35.3 nM
  IC50, PBMC + BaL (R5): 610 nM
  IC50, PBMC + NL4.3 (X4): 580 nM
  IC50, U87 + NL4.3 (X4): > 1330 nM
[25]
  EC50: 0.76 nM
[26]
  IC50, TZM-bl, DJ259 (R5): 169 nM
  IC50, TZM-bl, NL4.3 3F11 res: > 6700 nM
  IC50, TZM-bl, NL4.3 281F12 res: > 6700 nM
  IC50, TZM-bl, NL4.3 WT (X4): 131 nM
  IC50, TZM-bl, SM145 (R5): 8.33 nM
[27]
  EC50: 0.7 nM
[28]
  IC50, syncytia formation, SupT1 + HUT-78/IIIb: 4600 nM
  IC50, syncytia formation, SupT1 + HUT-78/NL4.3: 2800 nM
[29]
  IC50, X4 HIV-1 NL4.3 replication in MT-4 cells: 0.52 µg/mL
[30]
  IC50, HIV1 infectivity, X4 NL4.3 in MT-4 cells: 60.7 nM
[31]
  EC50: 0.5 nM
Human CXCR4 [32]
  binding result: no binding (tested: 100 nM)
[33]
  EC50: 1.1 nM
[34]
  EC50: 0.6 nM
[35]
  IC50, HIV-1 neutralization, MT-4 + NL4.3: 34.7 nM
Cynomolgus CD4
  binding result: binds
[36]
  EC50: 1 nM
